Source: US20140004128A1 (AstraZeneca / MedImmune, published 2014)

T1: recombinant rat IL-18 (rat, UniProt P97636 37-194)
T1 construct: Bought
T1 sequence (looked up): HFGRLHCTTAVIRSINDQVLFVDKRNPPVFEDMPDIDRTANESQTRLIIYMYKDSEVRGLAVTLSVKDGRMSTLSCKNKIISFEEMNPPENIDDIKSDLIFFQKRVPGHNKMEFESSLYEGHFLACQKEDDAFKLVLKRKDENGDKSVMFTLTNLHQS

T2: human IL-1F7/FIL1zeta (human, UniProt Q9NZH6-2 27-192, limits assumed)
T2 construct: Bought
T2 sequence (looked up): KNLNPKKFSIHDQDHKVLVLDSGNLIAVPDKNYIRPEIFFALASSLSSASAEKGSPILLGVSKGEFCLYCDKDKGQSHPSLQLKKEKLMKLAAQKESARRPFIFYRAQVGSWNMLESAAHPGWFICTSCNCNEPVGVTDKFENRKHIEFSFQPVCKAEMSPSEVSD

T3: mouse IL-18 (mouse, UniProt P70380 36-192)
T3 sequence (looked up): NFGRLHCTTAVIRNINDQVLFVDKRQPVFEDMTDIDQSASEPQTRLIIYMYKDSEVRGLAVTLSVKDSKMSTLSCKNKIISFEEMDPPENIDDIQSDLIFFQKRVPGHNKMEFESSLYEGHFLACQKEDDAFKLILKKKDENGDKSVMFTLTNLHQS


How the values were obtained:
[1] = target: T4, recombinant human IL-18 (human, UniProt Q14116 37-193); assay: cell-based or functional assay
[2] = target: T1, recombinant rat IL-18; assay: SPR (BIAcore 2000), IgG amine-coupled to CM3 chip
[3] = target: T5, human IL-1beta (human, UniProt P01584 117-269); assay: SPR (BIAcore 2000), IgG amine-coupled to CM3 chip
T5 construct: Bought; also called Human IL-1β

[4] = target: T2, human IL-1F7/FIL1zeta; assay: SPR (BIAcore 2000), IgG amine-coupled to CM3 chip
[5] = target: T4, recombinant human IL-18; assay: SPR (BIAcore 2000), IgG amine-coupled to CM3 chip, IL-18 as analyte, 1:1 Langmuir
[6] = target: T4, recombinant human IL-18; assay: HTRF receptor-ligand competition: human IL-18 with Eu-cryptate IL-18Rα and biotinylated IL-18Rβ
[7] = target: T6, recombinant Rhesus Macaque IL-18 (Rhesus Macaque, UniProt Q9BGI5 37-193); assay: HTRF receptor-ligand competition: Rhesus Macaque IL-18 (1.5 nM) with Eu-cryptate human IL-18Rα and biotinylated human IL-18Rβ
T6 construct: Bought; also called Rhesus m; IL-18

[8] = target: T4, recombinant human IL-18; assay: cell-based or functional assay; remark: listed apart in the source
[9] = target: T6, recombinant Rhesus Macaque IL-18; assay: cell-based or functional assay
[10] = target: T4, recombinant human IL-18; assay: cell-based or functional assay; remark: listed apart in the source
[11] = target: cynomolgus monkey IL-18 (cynomolgus monkey, UniProt A0A2K5TJ84 37-193); assay: cell-based or functional assay
[12] = target: T4, recombinant human IL-18; assay: cell-based or functional assay; remark: listed apart in the source
[13] = target: T6, recombinant Rhesus Macaque IL-18; assay: cell-based or functional assay; remark: listed apart in the source
[14] = target: T1, recombinant rat IL-18; assay: SPR, IgG amine-coupled to CM5 chip
[15] = target: T3, mouse IL-18; assay: SPR, IgG amine-coupled to CM5 chip
[16] = target: T4, recombinant human IL-18; assay: SPR (BIAcore), IgG amine-coupled to CM3 or CM5 chip, IL-18 as analyte, 1:1 Langmuir
[17] = target: T6, recombinant Rhesus Macaque IL-18; assay: as above
[18] = target: T5, human IL-1beta; assay: SPR, IgG amine-coupled to CM5 chip
[19] = target: T2, human IL-1F7/FIL1zeta; assay: SPR, IgG amine-coupled to CM5 chip
[20] = target: T7, human IL-18-FH (baculovirus-produced IL-18 containing FLAG and His tags) (human, UniProt Q14116 37-193); assay: HTRF competition of IL-18BPa-Fc binding to FLAG/His-tagged human IL-18
T7 construct: not shown: N-terminal Flag tag and histidine tag

[21] = target: T4, recombinant human IL-18; assay: HTRF receptor-ligand competition: human IL-18 with Eu-cryptate IL-18Rα and biotinylated IL-18Rβ; purified scFv

Binder	IC50, IFNγ release KG-1 cell assay, human IL-18 [8]	IC50, IFNγ release KG-1 cell assay, Rhesus Macaque IL-18 [9]	IC50, IFNγ release by human PBMC stimulated with LPS and IL-12 (endogenous IL-18) [10]	binding result [14]	binding result [15]	Kd [16]	koff [16]	kon [16]	Kd [17]	koff [17]	kon [17]	also measured
Antibody 1 IgG2 (antibody, V domains shown, Whole human IgG2 heavy chain and human kappa light chain (vectors pEU9.2 and pEU3.4)) VH: QVQLQQSGPRLVKPSQTLSLTCTVSGGSISSGGYYWSWIRQPAGKGLEWIGSIYYSGSTYYNPSLKSRVTISGDTPKNQFSLKLSSVTAADTAVYYCARTPAYDGDARADFFDVWGRGTLVTVSS VL: DIVMTQSPSTLSASVGDRVTITCRASQGISSWLAWYQQKPGRAPKVLIYKASTLESGVPSRFSGSGSGTDFTLTISSLQPEDFATYYCQQSYSTPWTFGQGTKLEIK	–	–	–	–	–	–	–	–	–	–	–	IC50, inhibition of IFNγ release by KG-1 cells stimulated with human IL-18 and TNFα [1]: 258000 pM; binding result [2]: no binding (tested: 200 nM); binding result [3]: no binding (tested: 200 nM); binding result [4]: no binding (tested: 200 nM); Kd [5]: 9960 pM; koff [5]: 0.00732 s⁻¹; kon [5]: 735000 M⁻¹ s⁻¹; IC50 [6]: 2900 pM; IC50 [7]: 5400 pM
Antibody 1 scFv (scFv, V domains shown, also called purified scFv Antibody 1) VH: QVQLQQSGPRLVKPSQTLSLTCTVSGGSISSGGYYWSWIRQPAGKGLEWIGSIYYSGSTYYNPSLKSRVTISGDTPKNQFSLKLSSVTAADTAVYYCARTPAYDGDARADFFDVWGRGTLVTVSS VL: DIVMTQSPSTLSASVGDRVTITCRASQGISSWLAWYQQKPGRAPKVLIYKASTLESGVPSRFSGSGSGTDFTLTISSLQPEDFATYYCQQSYSTPWTFGQGTKLEIK	–	–	–	–	–	–	–	–	–	–	–	IC50 [21]: 12000 pM

Now from value to binder, other results behind:

IC50, IFNγ release KG-1 cell assay, human IL-18 [8]	IC50, IFNγ release KG-1 cell assay, Rhesus Macaque IL-18 [9]	IC50, IFNγ release by human PBMC stimulated with LPS and IL-12 (endogenous IL-18) [10]	binding result [14]	binding result [15]	Kd [16]	koff [16]	kon [16]	Kd [17]	koff [17]	kon [17]	Binder	also measured
80 pM	461 pM	150 pM	no binding	no binding	62.9 pM	2.9e-05 s⁻¹	460000 M⁻¹ s⁻¹	54.7 pM	3.5e-05 s⁻¹	630000 M⁻¹ s⁻¹	Antibody 12 GL IgG1TM (antibody, V domains shown, Human IgG1 (gamma 1 (f)) constant domains with three single amino acid substitutions (TM, Oganesyan et al 2008) and human kappa Km3 light chain constant domain; Expressed in CHO cells; also called germlined Antibody 12 IgG1TM) VH: QVQLQESGPGLVKPSETLSLTCTVSGGSISADGYYWSWIRQPPGKGLEWIGSLYYSGSTYYNPSLKGRVTISGDTSKNQFSLKLSSVTAADTAVYYCARTPAYFGQDRTDFFDVWGRGTLVTVSS VL: DIQMTQSPSTLSASVGDRVTITCRASQGISSWLAWYQQKPGKAPKVLIYKASTLESGVPSRFSGSGSGTEFTLTISSLQPDDFATYYCQQSHHPPWTFGQGTKLEIK	IC50, inhibition of IL-18-induced CD11b up-regulation on human neutrophils (flow cytometry) [1]: 2030 pM; IC50, inhibition of IL-18-mediated enhancement of fMLFF-induced ROS production in human neutrophils (flow cytometry) [1]: 200 pM; IC50, IFNγ release by cynomolgus monkey PBMC stimulated with LPS and IL-12 (endogenous IL-18) [11]: 280 pM; KD (pM), Schild analysis in the KG-1 IFNγ release cell assay [12]: 71 pM; KD (pM), Schild analysis in the KG-1 IFNγ release cell assay [13]: 142 pM
202 pM	285 pM	320 pM	no binding	no binding	92 pM	8.16e-05 s⁻¹	885000 M⁻¹ s⁻¹	46 pM	4.79e-05 s⁻¹	1.05e+06 M⁻¹ s⁻¹	Antibody 12 GL IgG2 (antibody, V domains shown, Germlined; whole human IgG2, kappa light chain) VH: QVQLQESGPGLVKPSETLSLTCTVSGGSISADGYYWSWIRQPPGKGLEWIGSLYYSGSTYYNPSLKGRVTISGDTSKNQFSLKLSSVTAADTAVYYCARTPAYFGQDRTDFFDVWGRGTLVTVSS VL: DIQMTQSPSTLSASVGDRVTITCRASQGISSWLAWYQQKPGKAPKVLIYKASTLESGVPSRFSGSGSGTEFTLTISSLQPDDFATYYCQQSHHPPWTFGQGTKLEIK	binding result [18]: no binding; binding result [19]: no binding; IC50 [20]: 200 pM
